{
  "source": "paper PMC7583038",
  "key": {"[1]": {"target": "wild-type eel follicle-stimulating hormone receptor (eel)"}, "[2]": {"target": "wild-type eel follicle-stimulating hormone receptor (eel)", "remark": "listed apart in the source"}},
  "data": [
    {"substance": "recombinant eel follicle-stimulating hormone (ligand)", "values": [
      {"measurement": "EC50 of the rec-eelFSH-stimulated cAMP response (HTRF) in transfected CHO-K1 cells, 30 min", "setting": "[1]", "result": 0.524, "unit": "µg/mL"},
      {"measurement": "EC50 of the rec-eelFSH-stimulated cAMP response (HTRF) in transfected CHO-K1 cells, 30 min", "setting": "eelFSHR-D540G (eel)", "result": 0.359, "unit": "µg/mL"},
      {"measurement": "EC50 of the rec-eelFSH-stimulated cAMP response (HTRF) in transfected CHO-K1 cells, 30 min", "setting": "eelFSHR-D540N (eel)", "result": 0.544, "unit": "µg/mL"},
      {"measurement": "EC50 of the rec-eelFSH-stimulated cAMP response (HTRF) in transfected CHO-K1 cells, 30 min (series with the inactivating mutants)", "setting": "[2]", "result": 0.314, "unit": "µg/mL"},
      {"measurement": "EC50 of the rec-eelFSH-stimulated cAMP response (HTRF) in transfected CHO-K1 cells, 30 min", "setting": "eelFSHR-R546C (eel)", "result": 0.385, "unit": "µg/mL"}
    ]}
  ]
}
